Results taken from patent publication US20160002331A1.

How the values were obtained:
Test in all cases: cell-based or functional assay
[1] = biological target: Notch1 receptor with L1594P mutation (ALL-SIL cells), P46531
[2] = biological target: Notch1 receptor with L1594P/D1610V mutations (DND-41 cells), P46531
[3] = biological target: Notch1 receptor with L1601P mutation (MOLT-4 cells), P46531
[4] = biological target: Notch1 receptor with a 17 amino acid insertion at position 1740 (Jurkat cells), P46531
Chain of Notch1 receptor with a 17 amino acid insertion at position 1740 (Jurkat cells), P46531 (P46531 19-2555): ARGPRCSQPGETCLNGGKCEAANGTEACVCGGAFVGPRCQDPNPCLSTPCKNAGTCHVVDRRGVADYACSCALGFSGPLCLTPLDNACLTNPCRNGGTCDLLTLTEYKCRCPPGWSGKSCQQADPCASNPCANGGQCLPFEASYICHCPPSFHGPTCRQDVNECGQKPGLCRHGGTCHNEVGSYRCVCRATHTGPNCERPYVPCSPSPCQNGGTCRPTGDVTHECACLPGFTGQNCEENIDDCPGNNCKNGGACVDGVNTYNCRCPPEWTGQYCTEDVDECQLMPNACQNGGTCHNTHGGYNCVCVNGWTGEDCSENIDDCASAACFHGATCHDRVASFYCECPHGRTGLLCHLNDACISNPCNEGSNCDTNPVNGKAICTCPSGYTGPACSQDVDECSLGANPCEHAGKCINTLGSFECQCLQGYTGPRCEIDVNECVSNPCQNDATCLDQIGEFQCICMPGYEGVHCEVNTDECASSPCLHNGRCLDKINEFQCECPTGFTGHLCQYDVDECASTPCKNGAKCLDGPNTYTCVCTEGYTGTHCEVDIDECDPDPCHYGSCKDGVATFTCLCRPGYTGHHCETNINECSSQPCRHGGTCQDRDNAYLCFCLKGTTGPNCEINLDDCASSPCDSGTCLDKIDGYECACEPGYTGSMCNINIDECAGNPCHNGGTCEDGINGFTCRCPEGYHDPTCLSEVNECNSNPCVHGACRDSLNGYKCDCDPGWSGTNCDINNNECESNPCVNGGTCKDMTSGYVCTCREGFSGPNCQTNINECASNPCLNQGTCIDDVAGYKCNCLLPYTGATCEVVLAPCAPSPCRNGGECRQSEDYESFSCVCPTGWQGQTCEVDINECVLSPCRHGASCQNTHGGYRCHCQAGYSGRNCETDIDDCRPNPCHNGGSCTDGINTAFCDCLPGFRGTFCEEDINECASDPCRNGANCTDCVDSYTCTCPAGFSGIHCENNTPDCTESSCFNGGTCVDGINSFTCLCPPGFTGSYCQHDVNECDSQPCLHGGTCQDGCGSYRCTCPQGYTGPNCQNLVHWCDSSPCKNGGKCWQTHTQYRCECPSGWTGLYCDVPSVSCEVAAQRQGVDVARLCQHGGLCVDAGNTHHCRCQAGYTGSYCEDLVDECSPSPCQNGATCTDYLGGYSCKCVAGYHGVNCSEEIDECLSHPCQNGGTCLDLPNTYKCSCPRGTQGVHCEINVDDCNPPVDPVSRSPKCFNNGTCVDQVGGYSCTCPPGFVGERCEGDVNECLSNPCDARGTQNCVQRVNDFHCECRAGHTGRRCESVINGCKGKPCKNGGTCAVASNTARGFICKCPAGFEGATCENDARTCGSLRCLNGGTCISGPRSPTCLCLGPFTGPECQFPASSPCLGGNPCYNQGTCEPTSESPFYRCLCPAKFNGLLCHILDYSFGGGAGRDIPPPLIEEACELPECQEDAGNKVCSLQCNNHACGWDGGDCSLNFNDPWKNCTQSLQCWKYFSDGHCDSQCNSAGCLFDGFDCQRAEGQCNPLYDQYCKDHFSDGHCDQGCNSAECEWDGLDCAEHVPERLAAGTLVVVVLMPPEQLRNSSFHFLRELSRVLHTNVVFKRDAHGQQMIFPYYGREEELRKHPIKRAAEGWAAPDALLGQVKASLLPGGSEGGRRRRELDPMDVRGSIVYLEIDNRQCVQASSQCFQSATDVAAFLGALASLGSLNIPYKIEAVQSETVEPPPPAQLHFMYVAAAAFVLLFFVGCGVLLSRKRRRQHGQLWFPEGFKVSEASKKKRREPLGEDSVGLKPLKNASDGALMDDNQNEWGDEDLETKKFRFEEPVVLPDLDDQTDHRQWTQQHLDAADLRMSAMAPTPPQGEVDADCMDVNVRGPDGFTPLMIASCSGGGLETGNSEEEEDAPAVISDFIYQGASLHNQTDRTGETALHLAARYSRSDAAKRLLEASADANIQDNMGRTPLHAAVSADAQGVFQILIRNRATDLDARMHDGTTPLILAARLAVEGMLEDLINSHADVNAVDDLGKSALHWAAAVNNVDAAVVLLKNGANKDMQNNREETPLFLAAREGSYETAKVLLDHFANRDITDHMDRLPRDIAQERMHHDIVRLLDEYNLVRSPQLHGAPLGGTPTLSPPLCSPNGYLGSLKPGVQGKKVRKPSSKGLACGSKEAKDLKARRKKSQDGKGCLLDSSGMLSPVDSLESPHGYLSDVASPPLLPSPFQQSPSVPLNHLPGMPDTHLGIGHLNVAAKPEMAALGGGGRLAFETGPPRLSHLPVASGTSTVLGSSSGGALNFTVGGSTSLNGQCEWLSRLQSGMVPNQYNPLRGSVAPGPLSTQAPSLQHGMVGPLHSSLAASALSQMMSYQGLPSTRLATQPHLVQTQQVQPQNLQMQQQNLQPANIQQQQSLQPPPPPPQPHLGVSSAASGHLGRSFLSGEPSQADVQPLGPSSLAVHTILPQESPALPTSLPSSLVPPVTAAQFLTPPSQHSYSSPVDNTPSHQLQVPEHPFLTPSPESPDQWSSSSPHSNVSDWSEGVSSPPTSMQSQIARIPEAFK

Chain of Notch1 receptor with L1594P mutation (ALL-SIL cells), P46531 (P46531 19-2555, stated change not applied): as the sequence (P46531 19-2555) above
Chain of Notch1 receptor with L1594P/D1610V mutations (DND-41 cells), P46531 (P46531 19-2555, stated change not applied): as the sequence (P46531 19-2555) above
Chain of Notch1 receptor with L1601P mutation (MOLT-4 cells), P46531 (P46531 19-2555, stated change not applied): as the sequence (P46531 19-2555) above

Normalized Notch1^ICD level, ALL-SIL cells, 0.001 µg/ml antibody (relative to untreated) [1]: 0.982
Normalized Notch1^ICD level, ALL-SIL cells, 0.01 µg/ml antibody (relative to untreated) [1]: 0.712
Normalized Notch1^ICD level, ALL-SIL cells, 0.1 µg/ml antibody (relative to untreated) [1]: 0.08
Normalized Notch1^ICD level, ALL-SIL cells, 1 µg/ml antibody (relative to untreated) [1]: 0.03
Normalized Notch1^ICD level, ALL-SIL cells, 10 µg/ml antibody (relative to untreated) [1]: 0.019
Normalized Notch1^ICD level, DND-41 cells, 0.001 µg/ml antibody (relative to untreated) [2]: 1.02
Normalized Notch1^ICD level, DND-41 cells, 0.01 µg/ml antibody (relative to untreated) [2]: 0.988
Normalized Notch1^ICD level, DND-41 cells, 0.1 µg/ml antibody (relative to untreated) [2]: 0.367
Normalized Notch1^ICD level, DND-41 cells, 1 µg/ml antibody (relative to untreated) [2]: 0.322
Normalized Notch1^ICD level, DND-41 cells, 10 µg/ml antibody (relative to untreated) [2]: 0.219
Normalized Notch1^ICD level, MOLT-4 cells, 0.01 µg/ml antibody (relative to untreated) [3]: 1.52
Normalized Notch1^ICD level, MOLT-4 cells, 0.1 µg/ml antibody (relative to untreated) [3]: 0.751
Normalized Notch1^ICD level, MOLT-4 cells, 1 µg/ml antibody (relative to untreated) [3]: 0.284
Normalized Notch1^ICD level, MOLT-4 cells, 10 µg/ml antibody (relative to untreated) [3]: 0.082
Normalized Notch1^ICD level, Jurkat cells, 0.001 µg/ml antibody (relative to untreated) [4]: 1.53
Normalized Notch1^ICD level, Jurkat cells, 0.01 µg/ml antibody (relative to untreated) [4]: 1.44
Normalized Notch1^ICD level, Jurkat cells, 0.1 µg/ml antibody (relative to untreated) [4]: 1.41
Normalized Notch1^ICD level, Jurkat cells, 1 µg/ml antibody (relative to untreated) [4]: 1.08
Normalized Notch1^ICD level, Jurkat cells, 10 µg/ml antibody (relative to untreated) [4]: 1.2
B1: rat 351-mIgG1 (antibody, V domains shown)
VH: EVQLVESGGGLVQPGRSLKVSCLASGFTFSHYGMNWIRQAPGKGLDWVASISRSGSYIRYVDTVKGRFTVSRDIAKNTLYLQMTSLRSEDTALYYCAREGQFGDYFEYWGQGVMVTVSS
VL: DIMLTQSPATLSVTPGERISLSCRASQKISTNLHWYQQKPNESPRILIKYASQTISGIPSRFSGSGSGTDFTLHINTVEPEDFSVYYCQQTNSWPLTFGSGTKLEIK
